According to patent publication US20260167699A1 (Chugai, published 2026):

T1: FcγRIIb extracellular domain with C-terminal His tag (human, UniProt P31994 43-217)
T1 construct: extracellular domain; also called 2b; CD32
T1 sequence: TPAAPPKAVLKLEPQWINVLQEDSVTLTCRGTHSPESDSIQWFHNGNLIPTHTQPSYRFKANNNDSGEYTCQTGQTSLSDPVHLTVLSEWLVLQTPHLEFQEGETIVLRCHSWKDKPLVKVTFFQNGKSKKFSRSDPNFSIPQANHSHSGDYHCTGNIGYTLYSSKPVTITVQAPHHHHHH

T2: FcγRIIa(H) extracellular domain with C-terminal His tag (human, UniProt P12318 34-217)
T2 construct: extracellular domain; H131 allotype; also called 2aH; CD32
T2 sequence: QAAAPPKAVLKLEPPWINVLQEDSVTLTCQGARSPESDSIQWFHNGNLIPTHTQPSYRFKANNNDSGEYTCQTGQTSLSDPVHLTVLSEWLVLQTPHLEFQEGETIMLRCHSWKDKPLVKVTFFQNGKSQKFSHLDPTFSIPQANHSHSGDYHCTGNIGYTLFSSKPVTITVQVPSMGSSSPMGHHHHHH

T3: FcγRIIa(R) extracellular domain with C-terminal His tag (human, UniProt P12318 34-217)
T3 construct: extracellular domain; R131 allotype; also called 2aR; CD32
T3 sequence: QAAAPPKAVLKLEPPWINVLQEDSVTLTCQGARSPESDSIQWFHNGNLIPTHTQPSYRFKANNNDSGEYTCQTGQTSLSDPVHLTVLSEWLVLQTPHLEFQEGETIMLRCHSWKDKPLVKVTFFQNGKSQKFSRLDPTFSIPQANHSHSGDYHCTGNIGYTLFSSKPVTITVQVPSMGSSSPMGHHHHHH


Key:
Test in all cases: SPR; % of GpH7-A5/GpH7-B3/GpL16-k0
[1] = target: T4, FcγRIIIa extracellular domain with C-terminal His tag (human, UniProt P08637 17-208)
T4 construct: extracellular domain; also called 3a; CD16
T4 sequence (P08637 other isoform, or with tags, fused parts or gaps): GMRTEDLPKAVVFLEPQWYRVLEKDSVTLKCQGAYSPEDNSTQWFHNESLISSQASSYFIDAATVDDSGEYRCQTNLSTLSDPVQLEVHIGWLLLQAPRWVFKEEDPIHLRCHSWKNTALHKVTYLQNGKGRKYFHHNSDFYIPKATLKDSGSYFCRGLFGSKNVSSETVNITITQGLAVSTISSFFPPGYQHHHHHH

[2] = target: T1, FcγRIIb extracellular domain with …
[3] = target: T2, FcγRIIa(H) extracellular domain with …
[4] = target: T3, FcγRIIa(R) extracellular domain with …
[5] = target: T5, FcγRIa extracellular domain with C-terminal His tag (human, UniProt P12314 16-292)
T5 construct: extracellular domain; also called 1a; CD64
T5 sequence (P12314 other isoform, or with tags, fused parts or gaps): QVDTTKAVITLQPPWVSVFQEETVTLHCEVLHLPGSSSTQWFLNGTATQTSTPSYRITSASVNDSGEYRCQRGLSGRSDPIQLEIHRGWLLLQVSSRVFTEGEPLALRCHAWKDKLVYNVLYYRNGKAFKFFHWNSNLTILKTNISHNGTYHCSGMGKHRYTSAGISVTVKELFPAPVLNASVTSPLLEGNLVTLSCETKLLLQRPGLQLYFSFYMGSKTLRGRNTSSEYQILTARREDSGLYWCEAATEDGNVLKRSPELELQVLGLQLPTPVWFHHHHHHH

He/Con 3a [1] | He/Con 2b [2] | He/Con 2aH [3] | He/Con 2aR [4] | He/Con 1a [5] | Binder
164% | 122% | 95.6% | 127% | 101% | GpH7-A5/GpH7-B3 variant K334_09D/GpL16-k0 (antibody, human IgG1, kappa, heterodimerized IgG1 (He Ab), mutation in one H chain only; also called He Ab) heavy 1: not shown heavy 2: not shown light: DIVMTQSPLSLPVTPGEPASISCQASESLVHSNRNTYLHWYLQKPGQSPQLLIYKVSNRFSGVPDRFSGSGSGTDFTLKISRVEAEDVGVYYCSQNTHVPPTFGQGTKVEIERTVAAPSVFIFPPSDEQLKSGTASVVCLLNNFYPREAKVQWKVDNALQSGNSQESVTEQDSKDSTYSLSSTLTLSKADYEKHKVYACEVTHQGLSSPVTKSFNRGEC
150% | 143% | 116% | 149% | 99.3% | GpH7-A5/GpH7-B3 variant K334_13S/GpL16-k0 (antibody, human IgG1, kappa, heterodimerized IgG1 (He Ab), mutation in one H chain only; also called He Ab) heavy 1: not shown heavy 2: not shown light: DIVMTQSPLSLPVTPGEPASISCQASESLVHSNRNTYLHWYLQKPGQSPQLLIYKVSNRFSGVPDRFSGSGSGTDFTLKISRVEAEDVGVYYCSQNTHVPPTFGQGTKVEIERTVAAPSVFIFPPSDEQLKSGTASVVCLLNNFYPREAKVQWKVDNALQSGNSQESVTEQDSKDSTYSLSSTLTLSKADYEKHKVYACEVTHQGLSSPVTKSFNRGEC
138% | 146% | 119% | 149% | 99.3% | GpH7-A5/GpH7-B3 variant K334_16H/GpL16-k0 (antibody, human IgG1, kappa, heterodimerized IgG1 (He Ab), mutation in one H chain only; also called He Ab) heavy 1: not shown heavy 2: not shown light: DIVMTQSPLSLPVTPGEPASISCQASESLVHSNRNTYLHWYLQKPGQSPQLLIYKVSNRFSGVPDRFSGSGSGTDFTLKISRVEAEDVGVYYCSQNTHVPPTFGQGTKVEIERTVAAPSVFIFPPSDEQLKSGTASVVCLLNNFYPREAKVQWKVDNALQSGNSQESVTEQDSKDSTYSLSSTLTLSKADYEKHKVYACEVTHQGLSSPVTKSFNRGEC

The next lines start with the binder.

Binder | He/Con 3a [1] | He/Con 2b [2] | He/Con 2aH [3] | He/Con 2aR [4] | He/Con 1a [5]
GpH7-A5/GpH7-B3 variant K334_12R/GpL16-k0 (antibody, human IgG1, kappa, heterodimerized IgG1 (He Ab), mutation in one H chain only; also called He Ab) heavy 1: not shown heavy 2: not shown light: DIVMTQSPLSLPVTPGEPASISCQASESLVHSNRNTYLHWYLQKPGQSPQLLIYKVSNRFSGVPDRFSGSGSGTDFTLKISRVEAEDVGVYYCSQNTHVPPTFGQGTKVEIERTVAAPSVFIFPPSDEQLKSGTASVVCLLNNFYPREAKVQWKVDNALQSGNSQESVTEQDSKDSTYSLSSTLTLSKADYEKHKVYACEVTHQGLSSPVTKSFNRGEC | 93.5% | 144% | 114% | 151% | 98.2%
GpH7-A5/GpH7-B3 variant K334_10E/GpL16-k0 (antibody, human IgG1, kappa, heterodimerized IgG1 (He Ab), mutation in one H chain only; also called He Ab) heavy 1: not shown heavy 2: not shown light: DIVMTQSPLSLPVTPGEPASISCQASESLVHSNRNTYLHWYLQKPGQSPQLLIYKVSNRFSGVPDRFSGSGSGTDFTLKISRVEAEDVGVYYCSQNTHVPPTFGQGTKVEIERTVAAPSVFIFPPSDEQLKSGTASVVCLLNNFYPREAKVQWKVDNALQSGNSQESVTEQDSKDSTYSLSSTLTLSKADYEKHKVYACEVTHQGLSSPVTKSFNRGEC | 186% | 148% | 113% | 144% | 104%
GpH7-A5/GpH7-B3 variant K334_14T/GpL16-k0 (antibody, human IgG1, kappa, heterodimerized IgG1 (He Ab), mutation in one H chain only; also called He Ab) heavy 1: not shown heavy 2: not shown light: DIVMTQSPLSLPVTPGEPASISCQASESLVHSNRNTYLHWYLQKPGQSPQLLIYKVSNRFSGVPDRFSGSGSGTDFTLKISRVEAEDVGVYYCSQNTHVPPTFGQGTKVEIERTVAAPSVFIFPPSDEQLKSGTASVVCLLNNFYPREAKVQWKVDNALQSGNSQESVTEQDSKDSTYSLSSTLTLSKADYEKHKVYACEVTHQGLSSPVTKSFNRGEC | 146% | 149% | 118% | 153% | 99.2%
GpH7-A5/GpH7-B3 variant K334_15Y/GpL16-k0 (antibody, human IgG1, kappa, heterodimerized IgG1 (He Ab), mutation in one H chain only; also called He Ab) heavy 1: not shown heavy 2: not shown light: DIVMTQSPLSLPVTPGEPASISCQASESLVHSNRNTYLHWYLQKPGQSPQLLIYKVSNRFSGVPDRFSGSGSGTDFTLKISRVEAEDVGVYYCSQNTHVPPTFGQGTKVEIERTVAAPSVFIFPPSDEQLKSGTASVVCLLNNFYPREAKVQWKVDNALQSGNSQESVTEQDSKDSTYSLSSTLTLSKADYEKHKVYACEVTHQGLSSPVTKSFNRGEC | 145% | 141% | 122% | 148% | 99.1%
